From the DeepSol protein solubility set

Test: soluble on expression in E. coli; label from the status in PepcDB or PDB records

Row | Sequence | soluble on expression in E. coli
1 | DTFIGWEPEVTHKKYFAMLDTISQVQGVPEPIIEAVAPLFFANNADQVHPELVASFKQSLESLTGERAVEVARIGRMVFGRRDVIEDAEKFALPTLIAVGREDKPRPVFESYLMHDCITGSELVEIPEAGHISSLEQPEFVNQMLLSFLNKVHA | not soluble
2 | MKVAVLGAAGGIGQALALLLKTQLPSGSELSLYDIAPVTPGVAVDLSHIPTAVKIKGFSGEDATPALEGADVVLISAGVARKPGMDRSDLFNVNAGIVKNLVQQVAKTCPKACIGIITNPVNTTVAIAAEVLKKAGVYDKNKLFGVTTLDIICSNTFVAELKGKQPGEVEVPVIGGHSGVTILPLLSQVPGVSFTEQEVADLTKRIQNAGTEVVEAKAGGGSATLSMGQAAARFGLSLVRALQGEQGVVECAYVEGDGQYARFFSQPLLLGKNGVEERKSIGTLSAFEQNALEGMLDTLKKDIALGQEFVNK | soluble
3 | MSLAIRVVCISDTHDLKVDIPRGDILIHAGDLTDGGTVSDIQKQLDWLKEQPHPIKVVVAGNHDSWFDQKSRPEEDARSGAKPDMDGLIYLESGLTVQKVKGRTVNIFGVPDIPEIGPKEFAFQYATDNHPWLSKVPPQTDILVTHCPPKHHLDLGLGDSNLLREVWRVKPRLHVFGHVHCAYGKESVFFDNFQQTYERIMSRPRRGPILDFIPNEAWLDYLRFLAQGIHAVAWKWIMSGPGSNNGSLMVNAAQMKGNSGKVKSRAVVVEIEGHHHHHH | soluble
4 | MAKAPDIVDLLTLAVDRNASDLVITVGLPPMIKIDGEFHPTEHEALTPQDTRRLMYALMDEKQQRHFEEEKELDFSFSLPAKGRYRVNVFLQRGSVGGVLRVVPTVVKSFEELGLPKNIGELALTPRGLLLITGPTGSGKSTTLASMIDYINERRRAHIVTIEDPIEFFHRHKTSIINQREIGSDTHGFHKALRSVLRQAPDVILVGEMRDYETISAAITAAETGHLVMGTLHTNSAPETIDRIIDVFPEAQQEQVRVQLANNLVAVMTQQLLPKAFGGGRVLAYELMIATSAVRALIREGKSHQLVSVIQTGGQYNMITMDACLADLYKRKLITYEMGQSRAVDPKEFARLAGAAAPAASTNTGAQRRA | soluble
5 | MSLHPVQHSAREQVNAQVLSAASQKIESLAQQRQWHDYRYTFKVYISSQIATAAPCATTPGVTLTSPVDIALNRMNFTVSCPQSWQMNVAVRPDVLVPVVMAKSLVARDTPLTANDVELKPYNVSAQRREVLMELDDAIGLSSKHALQPGKPITKEELVSPVLVGRDQPVMIVYQSAGITASMPGVALKNGRKGEMVKVRNASSQRVISAMVAESGVVTTVGAEEGHHHHHH | soluble
6 | MYLMSSIPPLIDLLPHDTPLALVDELIEVNDLSVHCQVTIGENNVFFDHETKTVPAWVGIEFMAQSIAGWSGYHAWKKGNKSPIGFLLGSRKYQAECSEFQQGDTLDIFAEQVLENNGMAVFSCYIEHKGQQLASSQLNVFVPTEEKLEELLTPKQLEHHHHHH | soluble
7 | MAGDPMWKTDVKLNADKFRKIDVHSHIQVLGYPFNVSITPQEFLSLMEAYNIEVAIISDVDNENIAKIVREYPDKLVGIYWANPRDKNSIKEAEKFLEKFEFRGIKLHPLLNMFSPADPKVEDIMRIAEEFNVHVQVHSGHPPTSLPWQIEELARKFPEVKIVMVHMGHGNAYYIQGAIEVAERNENVYLETSGMPMPSKIAEAYKVAPKRVVFGIDLPCHHPVVEIAKVLTSGLDEKGMERVFYENAKVLLLEHHHHHH | not soluble
8 | MSLSTQSEAALEAGLIATLRQMDYEYVQIVEEDNLYANFKRQLEIHNRKRLEEHGRTEFTAEEFEKILIYLEGGTRFEKAKKLRDLYPLDTADGQRIWVEFLNRQQWCQNEFQVSNQITVEGRKKCRYDVTILINGLPLVQIELKRRGVELKQAYNQIQRYHKTSFHGLFDYIQLFVISNGVNTRYFANNPNSGYKFTFNWTDAANHPFNELDKFAVFFLEKCTLGKIIGKYIVLHEGDKCLMVLRPYQFYAVEKILDRVQNSNDNGYIWHTTGAGKTLTSFKAAQLVSELDDVDKVMFVVDRHDLDTQTQSEYEAFEPGAVDSTDNTDELVKRLQSNSKIIITTIQKLNAAVSKTWYSSKIDAIRHSRIVMIFDECHRSHFGDSHKKIMKFFGNAQIFGFTGTPIFTENAVDGHTTKEIFGNCLHKYLIKDAIADENVLGFLVEYYHGNEIVDNDNQARMEEIAKFILNNFNKSTFDGEFDALFAVQSVPMLIRYYKIFRSLNPKIRIGAVFTYAANNSQDDEQTGMGTGQYAKESVGEADELQAIMDDYNENFGTSFTTENFRAYYDDINLRMKKKKADMKPLDLCLVVGMFLTGFDSKKLNTLYVDKNMEYHGLLQAFSRTNRVLNEKKRFGKIVCFRDLKNNVDTSIKLFSNSDNPEDIVRPPFEKVKQEYKSLSTDFLQKYPTPSSIDFLQSENDKKNFVLAFRDIIRKHAEIQIYEDYSEDAEDLGMTEQQFNDYKSKYLDITVGFIDPPAAPSTVAEDPVPYGNNQGLEDIDFCLELLHSDIINVAYILALINDLDPYSDDYSEKRQNIIDTMIKDAGMRGKAKLIDGFIKKNVDEDKENFMNGRNKADGTNELEERLNQYIVSERNKAVNDLADEEQISAEVLNHYMKEYDYLQKEQPEIIQKALKEKHLGLIKTRRALTRIMERLRSIIKTFNEGHHHHHH | soluble
9 | MSLGSGSGLSYNAGITQDNFLGMGSSLGLNGSRNTDSTNVNLSYTEPYFTKDGVSLGGNIFYEDYDNSARKASAAYKRKTYGASGTLGFPVDENNSYYLGLGYTHDKLRNVEREYTREKYVNSMKFPINPQNSHYDRIQSADFDLSFGWNYNNLNRGYFPTAGSSANISGKLTLPGSDNKYYQVGTNFSGYIPLNSEHKWVIATKGGLAYTNSFGGKEVPFYQLYSAGGMGSLRGFAGGSIGPKAIYYREDGFKAPSQDVIGGNAMVNASLELIIPAPFISDKYQHNVRTSVFVDAATVWNTKWKQSKADYPNLPDFGDYKRVRASAGIALQWQSPIGPLSFSYAKPIKKYAGDEIEQFQFTVGSTFEGHHHHHH | not soluble
10 | MRCKRHTVDFSSSIGVCASCLRERLFTLAVSTAASENDDNDHRHSRISPPPLLFPRSVSPYVAPRKSDAGTGTGAGGRDSVASSNNRFFATPQVVVQSSSSEKVFESDRSFKKKKSGLSRFSSFFRTRSDDYDSRRDSCDASTVFSQPSSATTSRSWFSKVISVRSKKQSTTNTCYIEDLIASESDHHHHNQNRPRQRYCRGMSPAGDSTTNDESVEESPGRLRRTPVMGTPGRKKTATIGIGRSVSGMAFCLSPLVRAKPNCSSNWKAKFPPDFGYSGELKSPAKPHLSTAASFCGNRSKKLVDLGRVDHRR | soluble
11 | MHESARHIVDLYQRHARAWDQRRRANPEAFEGEQAWLERFRRVMGQGGQVLDLGCGGGEPIARNLIEHQCAVTGVDSSATLLDHCRQRFAGQQWIHADMRSLALDQDFAGILAWNSLFHLSPDDQRAMFTVFERHAGPGCALMFTSGPEAGEAIGEFEGEALYHASLSPGEYCTLLDTHGFEVVQHISEDPDCCGFTVWLARAIDWGLEHHHHHH | not soluble
12 | MSLAWAPKNYIEKVVAIYDYTKDKDDELSFKEGAIIYVIKKNDDGWFEGVCNRVTGLFPGNYVESIMHYTDEGHHHHHH | soluble
13 | MGSDKIHHHHHHMSSTHTGIEWTDKTWNPTTGCDKVSPGCRYCYAEALTERFPQSFPTGFKLNLHPERLEQPKRWRTPSRIFVNSMSDLFHEDVPFSFLQEIFSIMRETPWHIYQILTKREENLVDLAPKLEWTENIWMGVSVESQRYTYRIDALRKVPAAVRFLSCEPLLESLNLDLQNIDWVIVGGESGYNHRPVKPEWIREILQQTREAEVAFFFKQWGGKHSKAGGRMLDDHTWEEMPKAWRKHIIKWQKKFHGQPKLHELEQKYLMSTK | not soluble
14 | MDSSSISSLLEDLKHSDALVREQATKKLWRIWFQQKGMYGLEKIDQSQKLLDAGEITEAEVMLTQLIQEQPDFAEAWNRRAFLYYSMGEYQKSLADCQMVIQINPVHFGALHGIGLCYAALGKYAKAIKAFKRALEIQPYSLVNQKLILECTFRLSLEHHHHHH | not soluble
15 | KKISQYACQRRTTLNNYNQLFTDALDILAENDELRENEGSCLAFMRASSVLKSLPFPITSMKDTEGIPCLGDKVKSIIEGIIEDGESSEAKAVLNDERYKSFKLFTSVFGVGLKTAEKWFRMGFRTLSKIQSDKSLRFTQMQKAGFLYYEDLVSCVNRPEAEAVSMLVKEAVVTFLPDALVTMTGGFRRGKMTGHDVDFLITSPEATEDEEQQLLHKVTDFWKQQGLLLYCDILESTFEKFKQPSRKVDALDHFQKCFLILKLDHGRVHSEKSGQQEGKGWKAIRVDLVMCPYDRRAFALLGWTGSRQFERDLRRYATHERKMMLDNHALYDRTKRVFLEAESEEEIFAHLGLDYIEPWERNA | soluble
16 | MSLGNNYAAKVNDQEISRGQFENAFNSERNRMQQQLGDQYSELAANEGYMKTLRQQVLNRLIDEALLDQYARELKLGISDEQVKQAIFATPAFQVDGKFDNSRYNGILNQMGMTADQYAQALRNQLTTQQLINGVAGTDFMLKGETDELAALVAQQRVVREATIDVNALAAKQPVTEQEIASYYEQNKNNFMTPEQFRVSYIKLVAATMQQPVSDADIQSYYDQHQDQFTQPQRTRYSIIQTKTEDEAKAVLDELNKGGDFAALAKEKSADIISARNGGDMGWLEDATIPDELKNAGLKEKGQLSGVIKSSVGFLIVRLDDIQPAKVKSLDEVRDDIAAKVKHEKALDAYYALQQKVSDAASNDTESLAGAEQAAGVKATQTGWFSKDNLPEELNFKPVADAIFNGGLVGENGASGINSDIITVDGDRAFVLRVSEHKPEAVKPLADVQEQVKALVQHNKAEQQAKVDAEKLLVDLKAGKGAEAMQAAGLKFGEPKTLSRSGRDPISQAAFALPLPAKDKPSYGMATDMQGNVVLLALDEVKQGSMPEDQKKAMVQGITQNNAQIVFEALMSNLRKEAKIKIGDALEQQEGHHHHHH | soluble
17 | MGSDKIHHHHHHCSEKTTTEIPETELKNISCSTQLVTHSSAQTRGAAPTTLNENDFVLYAFKKNGEGNFSYEEAKHETSVIDGGVWKYNAAFPVGTYKFIAFYNLDEKNQAALNTTITGISNQTWENILKSIVITHFPSATGQYHEDMNEIFCGKTTDEIDISSGIGGDDNEIKIKLTLERIVSRIDIKFIKVASDDDHIEVPYATGNIFGGTGTTSLTSLIFTSSNVPLKYNLNGENPDYVTGVQCQVTYAAPSFQYGEANADAVKALDYQPFPQNADAINNNMETNIKKGIAKGGAYFMGSYLLPFPSSSQTLNANIQLNKANQERTIKVPGFAVTSNYVSIITVRLKSSTDAGDNNNGNDDEHLFNPKSTFIVEIEKTYVGIHNTNVDVE | not soluble
18 | SMSKHHKLARSLRSGPSDHDLKPNAATRDQLNIIVSYPPTKQLTYEEQDLVWKFRYYLTNQEKALTKFLKCVNWDLPQEAKQALELLGKWKPMDVEDSLELLSSHYTNPTVRRYAVARLRQADDEDLLMYLLQLVQALKYENFDDIKNGLEPTKKDSQSSVSENVSNSGINSAEIDSSQIITSPLPSVSSPPPASKTKEVPDGENLEQDLCTFLISRACKNSTLANYLYWYVIVECEDQDTQQRDPKTHEMYLNVMRRFSQALLKGDKSVRVMRSLLAAQQTFVDRLVHLMKAVQRESGNRKKKNERLQALLGDNEKMNLSDVELIPLPLEPQVKIRGIIPETATLFKSALMPAQLFFKTEDGGKYPVIFKHGDDLRQDQLILQIISLMDKLLRKENLDLKLTPYKVLATSTKHGFMQFIQSVPVAEVLDTEGSIQNFFRKYAPSENGPNGISAEVMDTYVKSCAGYCVITYILGVGDRHLDNLLLTKTGKLFHIDFGYILGRDPKPLPPPMKLNKEMVEGMGGTQSEQYQEFRKQCYTAFLHLRRYSNLILNLFSLMVDANIPDIALEPDKTVKKVQDKFRLDLSDEEAVHYMQSLIDESVHALFAAVVEQIH | soluble
